Columns and labels:
[1] = molecular target: HLA-C*08:02; assay: IEDB peptide-MHC binding, purified MHC/direct/fluorescence; filed as Kd, often an IC50 or EC50 that approximates it; ≥ and ≤ were set here for values at or beyond the usual limits of such assays
[2] = molecular target: HLA-C*06:02; assay: as above
[3] = molecular target: HLA-A*02:11; assay: IEDB peptide-MHC binding, purified MHC/competitive/fluorescence; filed as Kd, often an IC50 or EC50 that approximates it; ≥ and ≤ were set here for values at or beyond the usual limits of such assays; conditions: source organism: Human immunodeficiency virus type 1 (ELI ISOLATE)
[4] = molecular target: HLA-A*69:01; assay: as above
[5] = molecular target: HLA-A*02:01; assay: as above
[6] = molecular target: HLA-A*02:16; assay: as above; conditions: source organism: Human immunodeficiency virus type 1 (ELI ISOLATE)
[7] = molecular target: HLA-A*02:19; assay: as above; conditions: source organism: Human immunodeficiency virus type 1 (ELI ISOLATE)
[8] = molecular target: HLA-A*02:06; assay: as above
[9] = molecular target: HLA-A*02:03; assay: as above
[10] = molecular target: HLA-B*15:09; assay: as above
[11] = molecular target: HLA-B*15:42; assay: as above
[12] = molecular target: HLA-B*45:06; assay: as above
[13] = molecular target: HLA-B*83:01; assay: as above
[14] = molecular target: HLA-C*04:01; assay: as above
[15] = molecular target: HLA-B*15:01; assay: as above; conditions: source organism: Escherichia coli
[16] = molecular target: HLA-B*08:01; assay: as above; conditions: source organism: Escherichia coli
[17] = molecular target: HLA-B*44:03; assay: IEDB peptide-MHC binding, purified MHC/competitive/radioactivity; filed as Kd, often an IC50 or EC50 that approximates it; ≥ and ≤ were set here for values at or beyond the usual limits of such assays; conditions: source organism: Dengue virus 2 Jamaica/1409/1983
[18] = molecular target: HLA-B*18:01; assay: IEDB peptide-MHC binding, purified MHC/direct/fluorescence; filed as Kd, often an IC50 or EC50 that approximates it; ≥ and ≤ were set here for values at or beyond the usual limits of such assays
[19] = molecular target: HLA-B*44:02; assay: as above; conditions: source organism: dengue virus type 1
[20] = molecular target: HLA-A*02:11; assay: as above; conditions: source organism: Francisella tularensis subsp. tularensis FSC033
[21] = molecular target: HLA-A*02:12; assay: as above; conditions: source organism: Francisella tularensis subsp. tularensis FSC033
[22] = molecular target: HLA-A*02:01; assay: as above; conditions: source organism: Francisella tularensis subsp. holarctica LVS
[23] = molecular target: HLA-A*02:19; assay: as above; conditions: source organism: Francisella tularensis subsp. tularensis FSC033
[24] = molecular target: HLA-A*11:01; assay: as above; conditions: source organism: Camelpox virus M-96
[25] = molecular target: HLA-A*01:01; assay: as above; conditions: source organism: Camelpox virus M-96
[26] = molecular target: HLA-B*58:01; assay: as above; conditions: source organism: Camelpox virus M-96
[27] = molecular target: HLA-B*46:01; assay: as above; conditions: source organism: Camelpox virus M-96
[28] = molecular target: HLA-B*15:17; assay: as above; conditions: source organism: Camelpox virus M-96
[29] = molecular target: HLA-A*31:01; assay: as above; conditions: source organism: Camelpox virus M-96
[30] = molecular target: HLA-B*15:01; assay: as above; conditions: source organism: Camelpox virus M-96
[31] = molecular target: HLA-B*07:02; assay: as above; conditions: source organism: Camelpox virus M-96
[32] = molecular target: HLA-A*03:01; assay: as above; conditions: source organism: Camelpox virus M-96
[33] = molecular target: HLA-B*27:05; assay: as above; conditions: source organism: Camelpox virus M-96
[34] = molecular target: HLA-B*57:01; assay: as above; conditions: source organism: Camelpox virus M-96
[35] = molecular target: HLA-B*40:01; assay: as above; conditions: source organism: Camelpox virus M-96
[36] = molecular target: HLA-B*48:01; assay: as above; conditions: source organism: Camelpox virus M-96
[37] = molecular target: HLA-B*51:01; assay: as above; conditions: source organism: Camelpox virus M-96
[38] = molecular target: HLA-B*39:01; assay: IEDB peptide-MHC binding, purified MHC/competitive/fluorescence; filed as Kd, often an IC50 or EC50 that approximates it; ≥ and ≤ were set here for values at or beyond the usual limits of such assays; conditions: source organism: Vaccinia virus WR
[39] = source organism: Mycobacterium tuberculosis C
[40] = source organism: Human immunodeficiency virus type 1 (ELI ISOLATE)
[41] = source organism: Escherichia coli
[42] = source organism: dengue virus type 2
[43] = source organism: Francisella tularensis subsp. tularensis FSC198
[44] = source organism: Vaccinia virus WR

FAPDRVGAL
Kd [1, 39]: 0.673 µM
Kd [2, 39]: 1.89 µM

FLGRIWPS
Kd [3]: ≤ 0.0001 µM
Kd [4, 40]: ≥ 5 µM
Kd [5, 40]: 0.00133 µM
Kd [6]: ≤ 0.0001 µM
Kd [7]: 0.0018 µM
Kd [8, 40]: ≤ 0.0001 µM
Kd [9, 40]: 0.00024 µM
Kd [10, 40]: ≥ 20 µM

FVYSVSFHK
Kd [11, 39]: ≥ 5 µM
Kd [12, 39]: ≥ 5 µM
Kd [13, 39]: ≥ 5 µM
Kd [14, 39]: ≥ 5 µM

MERFSWHVA
Kd [11, 41]: ≥ 5 µM
Kd [12, 41]: 4.81 µM
Kd [13, 41]: ≥ 5 µM
Kd [15]: ≥ 20 µM
Kd [16]: ≥ 20 µM
Kd [14, 41]: ≥ 5 µM

SEMGANFKA
Kd [17]: 0.136 µM
Kd ([18]; source organism: dengue virus type 1): 0.119 µM
Kd [19]: 15.9 µM
Kd [11, 42]: ≥ 5 µM
Kd [12, 42]: ≥ 5 µM
Kd [13, 42]: ≥ 5 µM
Kd [14, 42]: ≥ 5 µM

YMYQYIQEL
Kd [20]: ≤ 0.001 µM
Kd [21]: 0.002 µM
Kd [1, 43]: 0.736 µM
Kd [22]: ≤ 0.001 µM
Kd [2, 43]: 0.006 µM
Kd [23]: 0.002 µM

YPAVINSNI
Kd [24]: ≥ 20 µM
Kd [25]: ≥ 20 µM
Kd [26]: ≥ 20 µM
Kd [27]: ≥ 20 µM
Kd [28]: ≥ 20 µM
Kd [29]: ≥ 20 µM
Kd [30]: ≥ 20 µM
Kd [31]: 0.373 µM
Kd [32]: ≥ 20 µM
Kd [33]: ≥ 20 µM
Kd [34]: ≥ 20 µM
Kd [35]: ≥ 20 µM
Kd [36]: ≥ 20 µM
Kd [37]: 0.296 µM
Kd ([18]; source organism: Camelpox virus M-96): ≥ 20 µM
Kd [4, 44]: 0.596 µM
Kd [5, 44]: ≥ 20 µM
Kd [38]: 2.81 µM
Kd [8, 44]: 4.11 µM
Kd [9, 44]: 3.82 µM
Kd [10, 44]: ≥ 20 µM

Reference: the Immune Epitope Database (IEDB)
